The target of assay [1] is 人脑利钠肽(BNP) (human) (UniProt P16860). Kind of assay: indirect ELISA, serial two-fold dilution of the antibody; coated antigen taken as BNP. In general terms: An ELISA detects its analyte on a solid surface through an enzyme-linked reagent.
Assay [2] shares this target. The experiment in a line: indirect ELISA, BNP coated at 2 μg/ml, purified antibody diluted 10^4-fold; mean value.
The target is the same in assay [3]. Kind of assay: sandwich ELISA, 5G8 coated, HRP-5D11 detection; plasma sample with BNP 39.7 pg/ml.
For assay [4] the target is unchanged. Kind of assay: sandwich ELISA kit, 5G8 coated at 5 μg/ml, HRP-5D11 detection; synthetic BNP standard 15.625 pg/ml.
Assay [5] has the same target. The experiment in a line: sandwich ELISA kit, 5G8 coated at 5 μg/ml, HRP-5D11 detection; synthetic BNP standard 31.25 pg/ml.
For assay [6] the target is unchanged. Kind of assay: sandwich ELISA, 5G8 coated, HRP-5D11 detection; plasma sample with BNP 3287.3 pg/ml.
Assay [7] has the same target. Kind of assay: sandwich ELISA, 5G8 coated, HRP-5D11 detection; plasma sample with BNP 287 pg/ml.
Assay [8] shares this target. Kind of assay: sandwich ELISA, 5G8 coated, HRP-5D11 detection; 0 pg/ml BNP (blank).
Assay [9] has the same target. Kind of assay: sandwich ELISA, 5G8 coated, HRP-5D11 detection; plasma sample with BNP 1125.7 pg/ml.
For assay [10] the target is unchanged. Kind of assay: sandwich ELISA, 5G8 coated, HRP-5D11 detection; plasma sample with BNP 2046.3 pg/ml.
The target is the same in assay [11]. Kind of assay: sandwich ELISA, 5G8 coated, HRP-5D11 detection; plasma sample with BNP 425.6 pg/ml.
For assay [12] the target is unchanged. Kind of assay: sandwich ELISA kit, 5G8 coated at 5 μg/ml, HRP-5D11 detection; synthetic BNP standard 7.8125 pg/ml.
For assay [13] the target is unchanged. The experiment in a line: sandwich ELISA kit, 5G8 coated at 5 μg/ml, HRP-5D11 detection; synthetic BNP standard 62.5 pg/ml.
Assay [14] has the same target. Kind of assay: sandwich ELISA kit, 5G8 coated at 5 μg/ml, HRP-5D11 detection; synthetic BNP standard 3.90625 pg/ml.
The target is the same in assay [15]. The experiment in a line: sandwich ELISA, 5G8 coated, HRP-5D11 detection; plasma sample with BNP 108 pg/ml.
Assay [16] has the same target. Kind of assay: sandwich ELISA kit, 5G8 coated at 5 μg/ml, HRP-5D11 detection; 0 pg/ml BNP (blank).
Assay [17] has the same target. The experiment in a line: sandwich ELISA kit, 5G8 coated at 5 μg/ml, HRP-5D11 detection; synthetic BNP standard 250 pg/ml.
Assay [18] has the same target. Kind of assay: sandwich ELISA kit, 5G8 coated at 5 μg/ml, HRP-5D11 detection; synthetic BNP standard 125 pg/ml.

UniProt P16860, sequence (P16860 103-134): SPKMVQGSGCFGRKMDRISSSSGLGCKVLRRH

B1: 兔单克隆抗体OTIR5D11 (antibody, V domains shown)
VH: QSVEESGGRLVTPGTPLTLTCTVSGFSLSSYAMNWVRQAPGKGLEWIGYIDSSGTIYYASWAKGRFTISKTSTTVDLKITSPTTEDTATYFCARGMNWGQGTLVTVS
VL: AAVLTQTPSPVSAAVGGTVTISCQSSQSVYDNNALAWYQQKPGQPPKRLIYKASTLDSGVPSRFSGSGSGTQFTLTISGVQCDDAATYYCLGEYYDDAEFGGGTEVVVK
Turning to B1, the 效价 (ELISA titer) with 人脑利钠肽(BNP) (human) [1] was determined as 1.3e+07. In addition, the OD450 with 人脑利钠肽(BNP) (human) [2] amounted to 2.85 OD450.

B2: 兔单克隆抗体OTIR5G8 (antibody, V domains shown)
VH: QSLEESGGRLVTPGTPLTLTCTASGFSLISYDMSWVRQAPGKGLEWIGFLGSGSSAYYASWAKGRFTISRTSTTVDLKITSPTTEDTATYFCARGTGWGQGTLVTVSS
VL: AQVLTQTPSSVSAAVGGTVTINCQASQSVYKNNWLSWFQQKPGQPLKRLTYRASTLDSGVPSRFSGSGSGTEFTLTISDVQCDDAATYYCLGSYDCSSADFGGGTEMVVK
Take B2: the OD450nm is 0.273 OD450nm with 人脑利钠肽(BNP) (human) [3]; 0.086 OD450nm in the assay with 人脑利钠肽(BNP) (human) [4]; 0.224 OD450nm with 人脑利钠肽(BNP) (human) [5]; 3.6 OD450nm with 人脑利钠肽(BNP) (human) [6]; 1.37 OD450nm with 人脑利钠肽(BNP) (human) [7]; 0.026 OD450nm in the assay with 人脑利钠肽(BNP) (human) [8]. Further, the OD450nm amounted to 2.8 OD450nm with 人脑利钠肽(BNP) (human) [9]; 3.48 OD450nm in the assay with 人脑利钠肽(BNP) (human) [10]; 1.74 OD450nm with 人脑利钠肽(BNP) (human) [11]; 0.033 OD450nm with 人脑利钠肽(BNP) (human) [12]; 0.529 OD450nm with 人脑利钠肽(BNP) (human) [13]; 0.024 OD450nm with 人脑利钠肽(BNP) (human) [14]. In addition, the OD450nm with 人脑利钠肽(BNP) (human) [15] turned out to be 0.951 OD450nm; with 人脑利钠肽(BNP) (human) [16] it was 0.01 OD450nm; in the assay with 人脑利钠肽(BNP) (human) [17], 2 OD450nm; with 人脑利钠肽(BNP) (human) [18], 1.11 OD450nm. Moreover, the 效价 (ELISA titer) with 人脑利钠肽(BNP) (human) [1] was 6.6e+06. Moreover, the OD450 with 人脑利钠肽(BNP) (human) [2] is 2.85 OD450.

The record behind these values is patent publication CN113956355A.
